In test [1] the target is T1, Human IL-33 (human, UniProt O95760 112-270, limits assumed).
T1 construct: also called NF-HEV
T1 sequence (looked up): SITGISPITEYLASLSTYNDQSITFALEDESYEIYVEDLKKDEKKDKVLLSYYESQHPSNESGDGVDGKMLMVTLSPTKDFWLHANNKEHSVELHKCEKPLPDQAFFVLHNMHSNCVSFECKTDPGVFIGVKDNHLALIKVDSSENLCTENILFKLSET
Put plainly: ELISA on plate-coated human IL-33, HRP anti-human IgG detection; 10 mg/mL formulation, 2 to 8 C, T0. On the procedure:
(§1) Compositions of 10 mg/mL of each human anti-IL-33 monoclonal antibody (A10-1C04, A23-1A05, A25-2C02, A25-3H04 or A26-1F02) were prepared with 10 mM histidine/pH 6/0.02% (w/v) polysorbate 80/3.6% (w/v) sorbitol, and then each filled into a glass vial and sealed with a halogenated butyl rubber stopper, and stored for 1, 2 and 3 years at a temperature of 2 to 8° C. as a long-term stability test. The presence or absence of aggregation was confirmed by visual examination for 5 seconds each under a 2000 to 3750 Lux fluorescent lamp, against white and black board backgrounds. The binding activity was evaluated by the following method. Human IL-33 was added to a 96-well plate and allowed to form a solid phase overnight. BSA was used for blocking, and then the sample solution was added to each well, reacted with HRP-labeled anti-human IgG antibody and colored with TMB. The absorbance at 450 nm and 650 nm was then measured with a plate reader (Molecular Devices Corp.) to determine the EC50 value. The EC50 value of the standard solution was also determined in the same manner, and the ratio was calculated.
A general note: ELISA stands for enzyme-linked immunosorbent assay.

In test [2] the target is T1, Human IL-33. Put plainly: ELISA on plate-coated human IL-33, HRP anti-human IgG detection; 150 mg/mL formulation, 2 to 8 C, T0. On the procedure: The presence or absence of aggregation was confirmed by visual examination for 5 seconds each under a 2000 to 3750 Lux fluorescent lamp, against white and black board backgrounds. The binding activity was evaluated by the following method. Human IL-33 was added to a 96-well plate and allowed to form a solid phase overnight. BSA was used for blocking, and then the sample solution was added to each well, reacted with HRP-labeled anti-human IgG antibody and colored with TMB. The absorbance at 450 nm and 650 nm was then measured with a plate reader (Molecular Devices Corp.) to determine the EC50 value. The EC50 value of the standard solution was also determined in the same manner, and the ratio was calculated.
Compositions of 150 mg/mL of each human anti-IL-33 monoclonal antibody (A10-1C04, A23-1A05, A25-2C02, A25-3H04 or A26-1F02) were prepared with 10 mM histidine/pH 6/0.02% (w/v) polysorbate 80/4.0% (w/v) sorbitol, and then each was filled into a glass vial and sealed with a halogenated butyl rubber stopper, and stored for 3 and 6 months at a temperature of 2 to 8° C. as a long-term stability test. The evaluation was conducted by the same method as Example 14.

Test [3] addresses T1, Human IL-33. Put plainly: ELISA on plate-coated human IL-33, HRP anti-human IgG detection; 10 mg/mL formulation stored 1 year at 2 to 8 C. On the procedure:
as §1

Test [4] addresses T1, Human IL-33. Nature of the test: ELISA on plate-coated human IL-33, HRP anti-human IgG detection; 10 mg/mL formulation stored 2 years at 2 to 8 C. The procedure:
as §1

The target in test [5] is T1, Human IL-33. Nature of the test: ELISA on plate-coated human IL-33, HRP anti-human IgG detection; 10 mg/mL formulation stored 3 years at 2 to 8 C. The procedure:
as §1

Test [6] concerns the target T1, Human IL-33. Put plainly: ELISA on plate-coated human IL-33, HRP anti-human IgG detection; 150 mg/mL formulation stored 3 months at 2 to 8 C. The procedure: as §1, with “monoclonal” for “Compositions of 10 mg/mL of each human anti-IL-33 monoclonal”, “and stored for 1, 2 and 3 years at a temperature of 2 to” left out
(§2) Compositions of 150 mg/mL of each human anti-IL-33 monoclonal antibody (A10-1C04, A23-1A05, A25-2C02, A25-3H04 or A26-1F02) were prepared with 10 mM histidine/pH 6/0.02% (w/v) polysorbate 80/4.0% (w/v) sorbitol, and then each was filled into a glass vial and sealed with a halogenated butyl rubber stopper, and stored for 3 and 6 months at a temperature of 2 to 8° C. as a long-term stability test. […]

In test [7] the target is T1, Human IL-33. Nature of the test: ELISA on plate-coated human IL-33, HRP anti-human IgG detection; 150 mg/mL formulation stored 6 months at 2 to 8 C. On the procedure: as §1, with “monoclonal” for “Compositions of 10 mg/mL of each human anti-IL-33 monoclonal”, “and stored for 1, 2 and 3 years at a temperature of 2 to” left out
as §2

B1: human anti-IL-33 monoclonal antibody A10-1C04 (antibody, human IgG1, lambda, V domains shown)
VH: EVQLLESGGGLVQPGGSLRLSCAASGFTFSDYYMNWVRQAPGKGLEWVSSISRYSSYIYYADSVKGRFTISRDNSKNTLYLQMNSLRAEDTAVYYCARDIGGMDVWGQGTLVTVSS
VL: QSVLTQPPSASGTPGQRVTISCTGSSSNIGAVYDVHWYQQLPGTAPKLLIYRNNQRPSGVPDRFSGSKSGTSASLAISGLRSEDEADYYCQTYDSSRWVFGGGTKLTVLG
notes: Detected with anti-human IgG antibody in the ELISA
In the case of B1, the “Binding activity (ratio of EC50 to that of the standard solution)” value came out at 100% in the test with Human IL-33 [1]; 115% with Human IL-33 [2]; 110% with Human IL-33 [3]; 101% with Human IL-33 [4]; 101% with Human IL-33 [5]; 110% with Human IL-33 [6]. Also, the “Binding activity (ratio of EC50 to that of the standard solution)” value with Human IL-33 [7] was 100%.

Values taken from patent publication US20220041709A1 (MITSUBISHI TANABE PHARMA, published 2022).
